Experimental data published in patent publication US6428965 (Johns Hopkins, dated 2002).

T1: myc-tagged soluble neuropilin extracellular domain (myc-neuropilin^ex) (rat, UniProt Q9QWJ9 22-855)
T1 construct: Expressed in COS cells and used as culture medium
T1 sequence: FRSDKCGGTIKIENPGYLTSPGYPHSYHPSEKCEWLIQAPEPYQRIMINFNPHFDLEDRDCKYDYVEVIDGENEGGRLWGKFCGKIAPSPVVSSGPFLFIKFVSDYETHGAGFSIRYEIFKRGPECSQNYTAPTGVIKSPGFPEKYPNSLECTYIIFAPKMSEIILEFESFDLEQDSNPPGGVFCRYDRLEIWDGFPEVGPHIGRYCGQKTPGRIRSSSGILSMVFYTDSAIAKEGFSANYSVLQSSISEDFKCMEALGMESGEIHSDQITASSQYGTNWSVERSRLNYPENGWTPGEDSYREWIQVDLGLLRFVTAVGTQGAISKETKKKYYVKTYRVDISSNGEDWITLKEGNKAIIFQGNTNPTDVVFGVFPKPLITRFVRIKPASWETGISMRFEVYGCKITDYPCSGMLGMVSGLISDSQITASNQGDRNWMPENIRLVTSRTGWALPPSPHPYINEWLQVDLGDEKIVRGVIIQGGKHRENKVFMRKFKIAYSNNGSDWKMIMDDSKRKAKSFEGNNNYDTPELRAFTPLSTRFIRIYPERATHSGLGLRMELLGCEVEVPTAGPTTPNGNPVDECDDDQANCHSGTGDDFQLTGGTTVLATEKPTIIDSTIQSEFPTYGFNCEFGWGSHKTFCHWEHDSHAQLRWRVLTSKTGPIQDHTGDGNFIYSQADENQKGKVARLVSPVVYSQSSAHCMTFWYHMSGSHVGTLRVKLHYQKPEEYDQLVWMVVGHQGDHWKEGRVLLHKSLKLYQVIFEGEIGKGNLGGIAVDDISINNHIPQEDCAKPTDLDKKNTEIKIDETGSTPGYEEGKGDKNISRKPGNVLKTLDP


How the values were obtained:
[1] = molecular target: T2, rat neuropilin (neuropilin-1), full length (rat, UniProt Q9QWJ9 22-922); experiment: whole cell binding, Scatchard analysis, COS cells transiently expressing neuropilin
T2 construct: Expressed transiently on COS cells from pMT21-neuropilin
Protocol: Because Coll-1 elicits biological effects at sub-nanomolar concentrations (Luo et al., 1993), we predicted that a bona fide Sema III receptor should bind to Sema III with high affinity. To determine the affinity of Sema-AP for neuropilin, neuropilin was transiently expressed in COS cells, and whole cell binding analyses were performed two days later (FIG. 3A). For comparison, the affinity of Sema-AP for its receptor(s) present on NGF-dependent sensory neurons prepared from dissociated E14 DRG was also determined (FIG. 3B). […] These binding affinities are similar to those recently described for netrins and their receptors (Keino-Masu et al., 1996; Leonardo et al., 1997) and Eph receptors and their ligands (Cheng and Flanagan, 1994; Monschau et al., 1997), and they are consistent with a role for neuropilin in Sema III-mediated growth cone collapse and in repulsive guidance of DRG neurons during neurodevelopment.
COS cells were transfected with 2 μg of pMT21-neuropilin, an expression vector encoding neuropilin, or either no DNA or the empty pMT21 expression vector using Lipofectamine (BRL), recovered in growth media, and then grown for 48 hours prior to binding analysis. Dissociated DRG neurons were cultured from E14 DRGs. […] Quantitiative cell surface binding was done essentially as described (Flanagan and Leder, 1990).

[2] = molecular target: Sema-AP binding sites / Sema III receptor(s) on NGF-dependent rat E14 DRG sensory neurons; experiment: whole cell binding, Scatchard analysis, dissociated rat E14 DRG neurons
[3] = molecular target: T1, myc-tagged soluble neuropilin …; experiment: co-immunoprecipitation with anti-myc antibody, AP activity
Protocol: Therefore, we next asked whether Sema-AP binds directly to neuropilin in a co-immunoprecipitation assay. For these experiments, an N-terminal myc-tagged neuropilin protein lacking the neuropilin transmembrane and intracellular domains (myc-neuropilin^ex) was used to assess whether the extracellular domain of neuropilin can directly interact with Sema III. Myc-neuropilin^ex was expressed in COS cells and the tissue culture medium was then incubated with either Sema-AP or SEAP alone. Upon precipitation of the myc-neuropilin^ex with a monoclonal antibody directed against the myc epitope, co-precipitation of Sema-AP was determined by the presence of AP activity in the immune complex (FIG. 1F). In contrast, no AP activity above background levels was detected in anti-myc immune complexes collected from samples in which myc-neuropilin was incubated with SEAP alone.
Co-precipitation of Sema-AP and the Secreted, Extracellular Domain of Neuropilin COS cell supernatant containing myc-neuropilin^ex, 293 EBNA cell supernatant containing SEAP, or 293 EBNA cell supernatant containing Sema-AP was filter-sterilized and concentrated. Samples containing equal amounts of control supernatants or supernatants containing myc-neuropilin^ex were mixed with samples containing either Sema-AP or SEAP (equal amounts of AP activity). These mixtures were incubated at room temperature for 2 hours. […]

[4] = molecular target: T2, rat neuropilin (neuropilin-1), full …; experiment: AP staining of transfected COS cells
Protocol: FIGS. 1A to 1F. Sema-AP binds to neuropilin. COS cells were transfected with an expression vector encoding neuropilin (FIGS. 1A–1C) or the empty vector (FIG. 1D). After two days, cells were incubated with Sema-AP (FIG. 1A) or SEAP (FIG. 1B) and then processed for alkaline phosphatase activity, or cells were fixed and subjected to immunocytochemistry using anti-neuropilin IgG (FIGS. 1C and 1D). No neuropilin immunoreactivity was detected when COS cells expressing neuropilin were incubated with pre-immune IgG. (FIG. 1E) Anti-neuropilin immunoblot analysis of whole cell extracts prepared from COS cells that were transfected with the empty expression vector (lane 1) or an expression vector encoding neuropilin (lane 2). (FIG. 1F) Sema-AP binds directly to the extracellular domain of neuropilin. Either Sema-AP or SEAP was incubated with soluble myc-tagged neuropilin extracellular domain (myc-neuropilin^ex). Then, myc-neuropilin^ex was immunoprecipitated with an antibody directed against the myc epitope, and alkaline phosphatase activity in the immune complex was determined as described in the Examples. AP activity was measured as described in the Examples and is reported as OD$405$/second. Shown are the means +/− SEM of three independent experiments. Scale bar=25 μm.

Binder | Kd [1] | binding sites per cell (binding sites per cell) [2] | binding result [3] | binding result [4]
H-Sema III-alkaline phosphatase fusion protein (Sema-AP) (ligand, human, UniProt Q14563 21-771, looked up, Made in 293 EBNA cells from pCEP4 and used as supernatant; also called Sema III-AP; Sema III-secreted placental alkaline phosphatase fusion protein; not shown: secreted placental alkaline phosphatase of vector pAPtag-1 (Flanagan and Leder, 1990), C-terminal to Sema III; limits an) NYQNGKNNVPRLKLSYKEMLESNNVITFNGLANSSSYHTFLLDEERSRLYVGAKDHIFSFDLVNIKDFQKIVWPVSYTRRDECKWAGKDILKECANFIKVLKAYNQTHLYACGTGAFHPICTYIEIGHHPEDNIFKLENSHFENGRGKSPYDPKLLTASLLIDGELYSGTAADFMGRDFAIFRTLGHHHPIRTEQHDSRWLNDPKFISAHLISESDNPEDDKVYFFFRENAIDGEHSGKATHARIGQICKNDFGGHRSLVNKWTTFLKARLICSVPGPNGIDTHFDELQDVFLMNFKDPKNPVVYGVFTTSSNIFKGSAVCMYSMSDVRRVFLGPYAHRDGPNYQWVPYQGRVPYPRPGTCPSKTFGGFDSTKDLPDDVITFARSHPAMYNPVFPMNNRPIVIKTDVNYQFTQIVVDRVDAEDGQYDVMFIGTDVGTVLKVVSIPKETWYDLEEVLLEEMTVFREPTAISAMELSTKQQQLYIGSTAGVAQLPLHRCDIYGKACAECCLARDPYCAWDGSACSRYFPTAKRRTRRQDIRNGDPLTHCSDLHHDNHHGHSPEERIIYGVENSSTFLECSPKSQRALVYWQFQRRNEERKEEIRVDDHIIRTDQGLLLRSLQQKDSGNYLCHAVEHGFIQTLLKVTLEVIDTEHLEELLHKDDDGDGSKTKEMSNSMTPSQKVWYRDFMQLINHPNLNTMDEFCEQVWKRDRKQRRQRPGHTPGNSNKWKHLQENKKGRNRRTHEFERAPRSV | ~1.5 nM | 20000 | – | –
secreted placental alkaline phosphatase (SEAP) (enzyme, UniProt P05187 23-511, looked up, Control for the AP part of Sema-AP) IIPVEEENPDFWNREAAEALGAAKKLQPAQTAAKNLIIFLGDGMGVSTVTAARILKGQKKDKLGPEIPLAMDRFPYVALSKTYNVDKHVPDSGATATAYLCGVKGNFQTIGLSAAARFNQCNTTRGNEVISVMNRAKKAGKSVGVVTTTRVQHASPAGTYAHTVNRNWYSDADVPASARQEGCQDIATQLISNMDIDVILGGGRKYMFRMGTPDPEYPDDYSQGGTRLDGKNLVQEWLAKRQGARYVWNRTELMQASLDPSVTHLMGLFEPGDMKYEIHRDSTLDPSLMEMTEAALRLLSRNPRGFFLFVEGGRIDHGHHESRAYRALTETIMFDDAIERAGQLTSEEDTLSLVTADHSHVFSFGGYPLRGSSIFGLAPGKARDRKAYTVLLYGNGPGYVLKDGARPDVTESESGSPEYRQQSAVPLDEETHAGEDVAVFARGPQAHLVHGVQEQTFIAHVMAFAACLEPYTACDLAPPAGTTDAAHPG | – | – | no binding | no binding
